# Paper PMC5159559
# T1: APRIN (PDS5B) (UniProt Q9NTI5 1-1447)
# T1 sequence: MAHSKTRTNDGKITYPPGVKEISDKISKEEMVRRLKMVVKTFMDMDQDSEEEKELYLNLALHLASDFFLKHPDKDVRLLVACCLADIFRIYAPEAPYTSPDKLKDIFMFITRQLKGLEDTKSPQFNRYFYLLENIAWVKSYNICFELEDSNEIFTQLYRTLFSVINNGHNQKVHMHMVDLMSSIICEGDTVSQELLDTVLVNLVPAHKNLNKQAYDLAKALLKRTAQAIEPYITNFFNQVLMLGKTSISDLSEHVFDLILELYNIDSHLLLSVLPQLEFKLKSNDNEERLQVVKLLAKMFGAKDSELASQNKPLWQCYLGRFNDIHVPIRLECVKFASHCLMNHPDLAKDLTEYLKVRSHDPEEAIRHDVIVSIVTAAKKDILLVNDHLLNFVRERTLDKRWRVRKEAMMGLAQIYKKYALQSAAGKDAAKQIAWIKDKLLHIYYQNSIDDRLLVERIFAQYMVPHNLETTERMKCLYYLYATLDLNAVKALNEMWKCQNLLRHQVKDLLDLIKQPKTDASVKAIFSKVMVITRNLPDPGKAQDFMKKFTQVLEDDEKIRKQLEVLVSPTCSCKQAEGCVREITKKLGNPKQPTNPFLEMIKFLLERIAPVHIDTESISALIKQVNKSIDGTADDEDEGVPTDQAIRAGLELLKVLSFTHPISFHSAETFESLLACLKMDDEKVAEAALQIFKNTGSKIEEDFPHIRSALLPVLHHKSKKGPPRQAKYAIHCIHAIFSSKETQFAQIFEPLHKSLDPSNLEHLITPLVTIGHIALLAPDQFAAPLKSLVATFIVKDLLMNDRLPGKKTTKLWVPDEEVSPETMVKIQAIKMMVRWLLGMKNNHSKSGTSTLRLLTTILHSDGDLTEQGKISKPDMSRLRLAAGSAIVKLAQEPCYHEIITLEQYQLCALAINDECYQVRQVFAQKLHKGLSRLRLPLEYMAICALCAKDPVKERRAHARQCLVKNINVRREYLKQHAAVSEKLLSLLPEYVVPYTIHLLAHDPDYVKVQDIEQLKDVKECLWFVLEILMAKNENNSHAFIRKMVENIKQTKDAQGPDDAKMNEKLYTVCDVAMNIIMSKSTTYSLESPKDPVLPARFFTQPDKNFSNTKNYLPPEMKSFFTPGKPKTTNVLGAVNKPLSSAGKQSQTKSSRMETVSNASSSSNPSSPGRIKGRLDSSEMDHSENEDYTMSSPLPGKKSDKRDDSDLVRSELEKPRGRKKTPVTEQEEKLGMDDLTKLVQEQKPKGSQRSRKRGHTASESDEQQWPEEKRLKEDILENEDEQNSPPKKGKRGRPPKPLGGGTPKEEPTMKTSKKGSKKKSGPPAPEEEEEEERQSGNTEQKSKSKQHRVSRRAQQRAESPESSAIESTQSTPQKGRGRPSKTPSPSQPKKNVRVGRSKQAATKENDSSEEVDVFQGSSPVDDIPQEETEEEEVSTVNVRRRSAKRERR
# B1: ssDNA (JYM925) (ssDNA)
# DNA: GGGTGAACCTGCAGGTGGGCAAAGATGTCCTAGCAATGTAATCGTCAAGCTTTATGCCGT
# B2: Holliday junction (JYM925/926/927/928) (structured_DNA)
# DNA 1: B1 DNA
# DNA 2: ACGCTGCCGAATTCTACCAGTGCCAGCGACGGACATCTTTGCCCACCTGCAGGTTCACCC
# DNA 3: ACGGCATAAAGCTTGACGATTACATTGCTACATGGAGCTGTCTAGAGGATCCGACTATCG
# DNA 4: CGATAGTCGGATCCTCTAGACAGCTCCATGGTCGCTGGCACTGGTAGAATTCGGCAGCGT
# B3: dsDNA (JYM925/JYM945) (dsDNA)
# DNA 1: B1 DNA
# DNA 2: ACGGCATAAAGCTTGACGATTACATTGCTAGGACATCTTTGCCCACCTGCAGGTTCACCC
# B4: Splayed arms (JYM925/JYM926) (structured_DNA)
# DNA 1: B1 DNA
# DNA 2: B2 DNA 2
# Biological target: T1, APRIN (PDS5B)
# Experiment: EMSA
row,Binder,binding result
1,B1,binds
2,B2,binds
3,B3,no binding
4,B4,binds
